Experimental findings from PMC8905165, “Reconstitution of an active human CENP-E motor” (Open Biology, 2022) are described below.

Data set [1] deals with the molecule itself. Description: native gel or EMSA; native PAGE of purified CENP-E483-2mNeon; monomer to dimer.
Data set [2] concerns the molecule itself. Description: single-molecule photobleaching step counting and initial intensity analysis (TIRF); 0.5 nM fluorescently tagged motor adsorbed non-specifically to silanized coverslips, BRB80 with oxygen scavenger mix, 30°C; monomer to dimer.

B1: CENP-E483-2mNeon (domain or fragment, human, UniProt Q02224 1-483, looked up)
chain: MAEEGAVAVCVRVRPLNSREESLGETAQVYWKTDNNVIYQVDGSKSFNFDRVFHGNETTKNVYEEIAAPIIDSAIQGYNGTIFAYGQTASGKTYTMMGSEDHLGVIPRAIHDIFQKIKKFPDREFLLRVSYMEIYNETITDLLCGTQKMKPLIIREDVNRNVYVADLTEEVVYTSEMALKWITKGEKSRHYGETKMNQRSSRSHTIFRMILESREKGEPSNCEGSVKVSHLNLVDLAGSERAAQTGAAGVRLKEGCNINRSLFILGQVIKKLSDGQVGGFINYRDSKLTRILQNSLGGNAKTRIICTITPVSFDETLTALQFASTAKYMKNTPYVNEVSTDEALLKRYRKEIMDLKKQLEEVSLETRAQAMEKDQLAQLLEEKDLLQKVQNEKIENLTRMLVTSSSLTLQQELKAKRKRRVTWCLGKINKMKNSNYADQFNIPTNITTKTHKLSINLLREIDESVCSESDVFSNTLDTLSEIE
notes: human CENP-E, N-terminal truncation with the motor domain and the first predicted coiled-coil (334-401), ending at residue 483; the start at residue 1 is printed only for the ColabFold input (1-483); Codon-optimised synthetic gene in pFastBac1; A mixture of monomers and dimers in solution; also called truncated human CENP-E; minimal human CENP-E motor; source: Sf9 cells (baculovirus), purified …
The term stoichiometry N denotes the number of molecules, sites or subunits per partner or assembly. As for B1, in data set [1], the “stoichiometry N” value turned out to be 2.

B2: CENP-E754-2mNeon (domain or fragment, human, UniProt Q02224 1-754, looked up)
chain: MAEEGAVAVCVRVRPLNSREESLGETAQVYWKTDNNVIYQVDGSKSFNFDRVFHGNETTKNVYEEIAAPIIDSAIQGYNGTIFAYGQTASGKTYTMMGSEDHLGVIPRAIHDIFQKIKKFPDREFLLRVSYMEIYNETITDLLCGTQKMKPLIIREDVNRNVYVADLTEEVVYTSEMALKWITKGEKSRHYGETKMNQRSSRSHTIFRMILESREKGEPSNCEGSVKVSHLNLVDLAGSERAAQTGAAGVRLKEGCNINRSLFILGQVIKKLSDGQVGGFINYRDSKLTRILQNSLGGNAKTRIICTITPVSFDETLTALQFASTAKYMKNTPYVNEVSTDEALLKRYRKEIMDLKKQLEEVSLETRAQAMEKDQLAQLLEEKDLLQKVQNEKIENLTRMLVTSSSLTLQQELKAKRKRRVTWCLGKINKMKNSNYADQFNIPTNITTKTHKLSINLLREIDESVCSESDVFSNTLDTLSEIEWNPATKLLNQENIESELNSLRADYDNLVLDYEQLRTEKEEMELKLKEKNDLDEFEALERKTKKDQEMQLIHEISNLKNLVKHAEVYNQDLENELSSKVELLREKEDQIKKLQEYIDSQKLENIKMDLSYSLESIEDPKQMKQTLFDAETVALDAKRESAFLRSENLELKEKMKELATTYKQMENDIQLYQSQLEAKKKMQVDLEKELQSAFNEITKLTSLIDGKVPKDLLCNLELEGKITDLQKELNKEVEENEALREEVILLSELKSLPS
notes: human CENP-E, N-terminal truncation with the motor domain and five predicted coiled-coils of the native stalk, ending at residue 754; The methods call it a dimeric motor; the self-association row is of one chain with another; also called truncated CENP-E; source: Sf9 cells (baculovirus), purified (HisTrap, Superose 6); not shown: mNeonGreen (2 x tandem), C-terminal, kept
Take B2: the binding result in data set [2] is given as “binds”.
